Assay: soluble on expression in E. coli; label from the status in PepcDB or PDB records
For “SGNRGVVYLGSGKVEVQKIDYPKMQDPRGKKIEHGVILKVVSTNICGSDQHMVRGRTTAQVGLVLGHEITGEVIEKGRDVENLQIGDLVSVPFNVACGRCRSCKEMHTGVCLTVNPARAGGAYGYVDMGDWTGGQAEYVLVPYADFNLLKLPDRDKAMEKIRDLTCLSDILPTGYHGAVTAGVGPGSTVYVAGAGPVGLAAAASARLLGAAVVIVGDLNPARLAHAKAQGFEIADLSLDTPLHEQIAALLGEPEVDCAVDAVGFEARGHGHEGAKHEAPATVLNSLMQVTRVAGKIGIPGLYVTEDPGAVDAAAKIGSLSIRFGLGWAKSHSFHTGQTPVMKYNRALMQAIMWDRINIAEVVGVQVISLDDAPRGYGEFDAGVPKKFVIDPHKTFSAA”, the “soluble on expression in E. coli” value was “soluble”. In the case of “MKKISIEERPDWRATAEREGFNFHTIDGERYWDERGYYLFTEQQITRDLEAPTQALHQMCMDAVARVVDSEELLHQLAIPPAFFDVIQTSWKQGHPHLYARFDFAYDGTGPAKMYEINADTPTSLMEAGAFQLLWLEEQMARGVLPAHASQFNSIAEDLVRAFAEFPGASPFYFAAMSGSVEDRVTTDFLRRMAAHVGIDARHIDIEDIGLNDQGRFVDLDGRWIERLFKLHAWEHIFHEAFGKNVTASGTQFVEPAWKAILSNKGILPLLWQFNEGHPNLLPSRVDQDVTKPVPKGWVRKPYFSREGANIEMRTPGDQVIAVDGPYTDAPYILQAYSPLPKFGDSYTLIGSWVIGDLASGIGIREDDSLITKDTSRFLPHVVID”, the “soluble on expression in E. coli” value is reported as “not soluble”. In the case of “MGISRDSWHKRYKTGATQPVPHKKRKFELGRPAANTKIGAHRVRLVRTRGGNEKYRALRLDSGNFSWASEQTTRKTRIVDTMYNATNNELVRTKTLVKGAIISVDAAPFRQWYEAHYALPLARKKNAKLSEEDNAILNKKRSHHTMKKYTERQKTAAVDALLIEQFNTGRLLARISSSPGQVGQANGYILEGKELDFYLRKIRAKKAK”, the “soluble on expression in E. coli” value is reported as “not soluble”. With “ITLKVAIYPYVPDPARFQAAVLDQWQRQEPGVKLEFTDWDSYSADPPDDLDVFVLDSIFLSHFVDAGYLLPFGSQDIDQAEDVLPFALQGAKRNGEVYGLPQILCTNLLFYRKGDLKIGQVDNIYELYKKIGTSHSEQIPPPQNKGLLINMAGGTTKASMYLEALIDVTGQYTEYDLLPPLDPLNDKVIRGLRLLINMAGEKPSQYVPEDGDAYVRASWFAQGSGRAFIGYSESMMRMGDYAEQVRFKPISSSAGQDIPLFYSDVVSVNSKTAHPELAKKLANVMASADTVEQALRPQADGQYPQYLLPARHQVYEALMQDYPIYSELAQIVNKPSNRVFRLGPEVRTWLKDAKQVLPEALGLTDVSSLAS” the “soluble on expression in E. coli” value was “soluble”. With “MIELTITNATITAGDTPLLTNASLHVGSGECVALMGESGSGKTTLAQAILGYLAPGCRWCSGSIDVDGLNPLQLAPRSLRELRKRCAYVDQDPGAALPPGHSVRSIVRSRASLSDAQMLSIFGDFGLGDIDR” the “soluble on expression in E. coli” value was “not soluble”. With “IGDWGYSVSANLTTIKNKVKSLVQDGYSIIAGDKQQSYTMAGYPIGFFYGYKVAGVYQSQADIDASPENTLATVTPGDLKFADVNRDGKITPEDRTMIGNPTPDFTYGLSLGVNYKNWSLGIDMMGQHGNEIFRTWDNYNFAQFNYLSQRMDRWHGEGTSNSQPLLNSKHSINNLNSEYYIEDGSFFRIRNVQLAYSFDKALLAKIRLQALKVYVNIQNLKTWKHNTGYTPELGGSATTFGVDDGSYPVPAVYTFGINLTF” the “soluble on expression in E. coli” value was “not soluble”. With “MSLKARPTIAEVARRAGVSPATVSRVLNGTARVSPEKVRAVLQAVEELGYAPSPLAQGLATGRSYAVGILLSDFASPFFGPILEALTLELEATPYRPIAVPGHWSLVRELEALEFLKAHRVEALVLLGTALDGEALGELGIPVLAFGQRVEGPKAWSLCLDNQQAAYEATRYLIDRGHTRIVHISSHRGGMDVRDRLLGYRKAMREAGLEARVVYGDLEEEGGYRAAAEAFRRYPDTTAIFAANDQTAFGARLYLYEQGLRVPEDVSLVGFDDIALSAYQIPPLTTVRQPIQDIGIALGRALRAVLAGEVPTLPRLELRLVERASVREVREGHHHHHH” the “soluble on expression in E. coli” value was “soluble”. In the case of “MARKSKGSRSSTRAVKQTDHFQVDVKLQSRPDHVRAPRANNENVNYTPVKEAKIQKILDHQLYNTHYVEYQVEMSDGTEEMLTEFDFDNKKTQKMLAEYKFKVTELEDDGSKEYVVEKIVAHRYPNDRLNQPLYLVMWRGFPDPVSNTEMWGEELENCQELLDAYNEEHDIDLSKTVMNKPPKKSKHQDTSDDSEESEDEEEKSPRKRSSKKRRAASVSDSDSDSDSDFDKKKWKKNKAKRSKRDDSSDDDSEMERRRKKSKKSKKSKKFKKSEKRKRAVNDSSSDDEDEEEKPEKRSKKSKKAVIDSSSEDEEEEKSSKKRSKKSKKESDEEQQASDSEEEVVEVKKNSKSPKKTPKKTAVKEESEESSGDEEEEVVKKKKSSKINKRKAKESSSDEEEEVEESPKKKTKSPRKSSKKSAAKEESEEESSDNEEEEEVDYSPKKKVKSPKKSSKKPAAKVESEEPSDNEEEEEEVEESPIKKDKTPRKYSRKSAAKVESTESSGNEEEEEVEESPKKKGKTPRKSSKKSAAVEESDNEEEDVEESPKKRTSPRKSSKKRAAKEESEESSDNEVEEVEDSPKKNDKTLRKSPRKPAAKVESEESFGNEEEEEVEESPKKKGKTPRKSSKKSAAKEESEESSDDEEEEQAEETNGSHTESPTKSKTDESDNSTSSDEDDE”, the “soluble on expression in E. coli” value is reported as “not soluble”. With “MNSSPKMKHDVFISFRSKDTRDNFVSHLCGCLRRKRIKTFLYDELPADERYEESLKAIEVSKISVIVFSENFGDSRWCLDEVVAILKCKEKFGQIVIPVLYHVDPLDIENQTGSFGDAFAKRRDKAEQLQEWKDSFTEAINLPGWSTAYLRYNPKLILSIKVTVVSELQDVLISGINIMITAFSTCK” the “soluble on expression in E. coli” value was “soluble”. For “GDLSNYFSNLSRLNCPQTIMTFRLFDPGFPFTDIEVNADIVLDRDAEKLPENWLQQLTGLSDTDVSMTAKGNVLSGQFLLPDFNLKLQDKSHAYLLLQGMDLEEVLRIQPQIGIYANGLFDGVLPVDLVDGKVSISGGQLAARAPGGLIAISGNPAVDQMRQSQPYLDFVFSALEHLAYSQLSSSFDMDNTGDATLLVEVKGRSQGIERPIHLNYSHEENMLQLFRSLQIGNDLQNRIEK”, the “soluble on expression in E. coli” value was “not soluble”. With “MGSDKIHHHHHHMIIEHARDMLKRERLFFDKMQAHIGEVNGTISIGCSSLIGQTLLPEVLSLYNAQFPNVEIQVQVGSTEQIKANHRDYHVMITRGNKVMNLANTHLFNDDHYFIFPKNRRDDVTKLPFIEFQADPIYINQIKQWYNDNLEQDYHATITVDQVATCKEMLISGVGVTILPEIMMKNISKEQFEFEKVEIDNEPLIRSTFMSYDPSMLQLPQVDSFVNLMASFVEQPKA” the “soluble on expression in E. coli” value was “not soluble”. With “MTHALLIGNPNCGKTTLFNALTNANQRVGNWPGVTVEKKTGEFLLGEHLIEITDLPGVYSLVANAEGISQDEQIAAQSVIDLEYDCIINVIDACHLERHLYLTSQLFELGKPVVVALNMMDIAEHRGISIDTEKLESLLGCSVIPIQAHKNIGIPALQQSLLHCSQKIKPLKLSLSVAAQQILNDLENQLISKGYKNSFAYYFSRRLAEGDTLIGEKAFTESLLIKLQETEQNLDVLLADARYQKIHEIVTLVQKK” the “soluble on expression in E. coli” value was “soluble”. With “KDFTWNTGVTYSMNKNKILTLADNAINPITREKFSISSLNMGGLGSTRFILKEGGSMGDIYSLMDLKRDANGAVYIDENNSVVTESLEANNYIKLGSVLPKGNLAWRNNFSWKNINVAFLVSARLGGVVFSRTQAVLDNFGVSEASAAARDKGYVSVNGNDRVNPEGWYSVVAGGTAVPQYYIYSATNIRLQEASIGYTIPRKWLGNVCDIKVSLIGRNLWMIYNKAPFDPESVASTDNFYQGIDYFMMPSLRNIGFNLSFKF” the “soluble on expression in E. coli” value was “not soluble”. In the case of “MGSDKIHHHHHHMQDSMYSALFGALTNEHRLNNIANNLANVNTTGYKRDVLAFKDTFLSFAHDEVMEPIPNVRSKKMFPEPIHIAKPRIALAKTDFSQGSLKLTGGTLDMAVHGDGFFKVRTPDGEFYTRNGNFRQTSDGQLVTQQGWPVLGAGGDIQIPPRANLTVAENGTIYADGEEIGQVQVVTLDNLDALEKQGSNLFRLREGAEAQEVPVENPVVLQGFLETANVEVVTEMVNMIEANRQFEAYQKIMQTTDAVDKMATTQVGRGRA”, the “soluble on expression in E. coli” value is reported as “not soluble”.

— the DeepSol protein solubility set
